Results as given in article PMC4672726.

Target: hemagglutinin (HA)–tagged FERONIA (FER-HA) (Arabidopsis thaliana) (UniProt Q9SCZ4)
Test: co-IP

hemagglutinin (HA)–tagged FERONIA (FER-HA) (Arabidopsis thaliana), sequence (Q9SCZ4 28-895): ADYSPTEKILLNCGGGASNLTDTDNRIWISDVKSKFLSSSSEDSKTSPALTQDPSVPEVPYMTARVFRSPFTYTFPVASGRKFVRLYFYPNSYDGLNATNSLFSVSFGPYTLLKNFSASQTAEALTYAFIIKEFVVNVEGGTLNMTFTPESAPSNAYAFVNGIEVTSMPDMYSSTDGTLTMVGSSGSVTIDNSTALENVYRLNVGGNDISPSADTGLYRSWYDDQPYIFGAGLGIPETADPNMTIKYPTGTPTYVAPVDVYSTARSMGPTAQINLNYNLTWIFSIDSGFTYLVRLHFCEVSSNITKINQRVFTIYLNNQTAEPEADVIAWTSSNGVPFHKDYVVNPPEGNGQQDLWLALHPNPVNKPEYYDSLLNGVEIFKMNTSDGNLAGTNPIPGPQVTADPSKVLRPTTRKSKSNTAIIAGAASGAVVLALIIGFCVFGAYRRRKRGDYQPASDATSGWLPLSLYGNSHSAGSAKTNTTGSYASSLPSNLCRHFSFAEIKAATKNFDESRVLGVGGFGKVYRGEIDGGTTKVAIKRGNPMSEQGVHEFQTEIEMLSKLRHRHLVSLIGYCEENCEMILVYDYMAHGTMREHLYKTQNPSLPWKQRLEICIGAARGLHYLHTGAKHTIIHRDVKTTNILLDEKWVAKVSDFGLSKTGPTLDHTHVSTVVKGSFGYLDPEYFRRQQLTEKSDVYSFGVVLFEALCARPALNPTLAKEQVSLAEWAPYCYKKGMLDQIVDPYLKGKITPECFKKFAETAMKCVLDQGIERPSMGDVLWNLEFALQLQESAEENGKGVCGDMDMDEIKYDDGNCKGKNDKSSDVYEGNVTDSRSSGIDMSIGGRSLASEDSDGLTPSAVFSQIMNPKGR

## HisRALF (RALF, rapid alkalinization factor, N-terminal 6×His fusion peptide) (from UniProt Q9SRY3 72-120)
  fold binding over the inactive analog HisRALF(Δ2–8): 4.5 to 6 fold
